{"source": "patent US20160184446A1", "about": "“METHOD OF INHIBITING BODY CAVITY FLUID ACCUMULATION” (Toray Industries, Inc., priority 2012, published 2016)", "molecules": {"B1": {"name": "PEG-mIFN-β: one PEG molecule with a molecular weight of 42,000 covalently bound to recombinant mouse interferon-β (conjugate, UniProt P01575 22-182, looked up)", "Interferon beta": "INYKQLQLQERTNIRKCQELLEQLNGKINLTYRADFKIPMEMTEKMQKSYTAFAIQEMLQNVFLVFRNNFSSTGWNETIVVRLLDELHQQTVFLKTVLEEKQEERLTWEMSSTALHLKSYYWRVQRYLKLMKYNSYAWMVVRAEIFRNFLIIRRLTRNFQN", "modifications": "42 kDa PEG"}}, "tested_on": "gastric cancer peritoneal metastasis mouse models (GCIY-EGFP cells)", "assay": "Ascites accumulation in gastric cancer peritoneal metastasis mouse models, systemic (subcutaneous) administration", "format": "in vivo", "details": "subcutaneous (systemic), 5,000 U/mouse/dose, twice a week for 4 weeks; ascites collected 2 weeks after final administration; vs PBS control", "description": "Gastric cancer peritoneal metastasis mouse models were produced by transplanting human gastric cancer cells, GCIY-EGFP cells, intraperitoneally into male KSN nude mice in the same manner as in Example 2.\nAdministration was initiated on the day after transplantation and performed twice a week for 4 weeks. Phosphate buffer (PBS) was administered to the control group in the same manner. Ascites was collected from the gastric cancer peritoneal metastasis mouse models under anesthesia 2 weeks after the final administration and the liquid volume was measured.\nThe vertical axis represents the amount of ascites (median; mL).", "data": [{"molecule": "B1", "values": [{"measurement": "accumulation of ascites (amount of ascites)", "value": "remarkably inhibited"}]}]}
